Residue numbers refer to the chain shown, from its start. Numbers in names are those of the source. Each block holds one binder with its values, some of them ahead of it.
Legend:
GST-Obsc_(6316–6345) = target: T1, GST-Obsc_(6316–6345) (Rattus norvegicus); experiment: SPR
T1 chain: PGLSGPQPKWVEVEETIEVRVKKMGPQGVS

GST-Obsc_(6231–6260) = GST-Obsc_(6231–6260) (Rattus norvegicus); experiment: SPR

fold reduction in kon against wild type (GST-Obsc_(6316–6345)): ~3 fold
B1: sAnk1-MBP I102A (domain or fragment)
chain: VKGSLCFVLKHIHQELDKELGESEGLSDDEETISTRVVRRRVFLKGDELQNIPGEQVTEEQFTDEQGNIVTKKAIRKVVRQVDSSGAIDTQQHEEVELRGSGLQPDLIEGRKGAQIVKRASLKRGKQ

fold decrease in kon against wild type (GST-Obsc_(6231–6260)): ~2 fold
B2: sAnk1-MBP I103A (domain or fragment)
chain: B1 chain with A74I, I75A

Kd (GST-Obsc_(6316–6345)): ~130 nM
B3: sAnk1-MBP (wild type, sAnk1 residues 29–155) (domain or fragment)
chain: B1 chain with A74I

fold decrease in kon against wild type (GST-Obsc_(6231–6260)): ~2 fold
B4: sAnk1-MBP F71A (domain or fragment)
chain: B1 chain with F43A, A74I

Reference: PMC3377380 (Molecular Membrane Biology, 2012)
